From article PMC4172472

Target: vitronectin (UniProt P04004)
Chain of UniProt P04004 (P04004 20-478): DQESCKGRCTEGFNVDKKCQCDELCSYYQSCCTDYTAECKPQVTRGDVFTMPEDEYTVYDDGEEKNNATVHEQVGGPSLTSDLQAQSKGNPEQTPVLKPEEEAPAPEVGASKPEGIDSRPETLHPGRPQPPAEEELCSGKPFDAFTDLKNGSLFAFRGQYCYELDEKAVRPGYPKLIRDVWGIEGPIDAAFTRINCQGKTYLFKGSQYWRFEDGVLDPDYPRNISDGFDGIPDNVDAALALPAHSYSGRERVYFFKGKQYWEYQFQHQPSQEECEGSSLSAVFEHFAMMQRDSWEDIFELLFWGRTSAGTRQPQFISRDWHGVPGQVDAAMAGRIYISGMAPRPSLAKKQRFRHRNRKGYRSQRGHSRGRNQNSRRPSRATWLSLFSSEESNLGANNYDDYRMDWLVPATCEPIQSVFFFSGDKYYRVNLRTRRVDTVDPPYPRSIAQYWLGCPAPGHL

“αvβ3 integrin (from UniProt P06756 31-1048; P05106 27-788) (receptor)” gave a detachment of adherent WM266 cells from vitronectin-coated plates by the anti-αvβ3 antibody LM609 (10 µg/mL), 2 h of 50%.
